How the values were obtained:
[1] = target: recombinant human HER2 protein HER2-ECD with His-tag (human) (UniProt P04626); experiment: ELISA on coated HER2-ECD, average of 3 independent assays, single site fit
[2] = target: recombinant human HER2 protein HER2-ECD with His-tag (human) (UniProt P04626); experiment: ELISA on coated HER2-ECD, 11-point dilution from 1000 ng/ml

RC48-vc-MMAF, sequence (VH): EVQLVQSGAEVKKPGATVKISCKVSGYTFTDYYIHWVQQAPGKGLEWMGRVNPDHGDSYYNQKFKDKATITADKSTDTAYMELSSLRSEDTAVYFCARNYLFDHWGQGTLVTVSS
RC48-vc-MMAF, sequence (VL): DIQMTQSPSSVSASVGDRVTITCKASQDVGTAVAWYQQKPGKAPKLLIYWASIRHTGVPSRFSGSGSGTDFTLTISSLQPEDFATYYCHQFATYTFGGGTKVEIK
RC48-vc-MMAE, sequence (VH): as the sequence (VH) above
RC48-vc-MMAE, sequence (VL): as the sequence (VL) above
humanized anti-HER2 antibody RC48, sequence (VH): as the sequence (VH) above
humanized anti-HER2 antibody RC48, sequence (VL): as the sequence (VL) above

Row | Substance | Kd [1] | Affinity [2] | Molar equivalent [2]
1 | humanized anti-HER2 antibody RC48 | 0.044 nM |  | 
2 | human-murine chimeric antibody cRC48 | 0.077 nM |  | 
3 | RC48-vc-MMAE |  | 2.24 ng/mL | 15.2 pmol/L
4 | RC48-vc-MMAF |  | 3.35 ng/mL | 13.5 pmol/L
